{"source": "patent US20140005119A1", "about": "“COMPOSITIONS AND METHODS FOR INHIBITING THE ACTIVITY OF P110a MUTANT PROTEINS” (Case Western Reserve University, priority 2012, published 2014)", "molecular_target": "T1, interaction between p110α E545K and IRS1 (Homo sapiens, UniProt P35568)", "T1 construct": "In KI DLD1 cells, IRS1 was co-immunoprecipitated with p110α E545K but not the WT p110α; endogenous in cells; host or cells: DLD1 p110α E545K 3×FLAG knock-in cells (rAAV gene targeting of the endogenous allele)", "T1 sequence (P35568 1-1242)": "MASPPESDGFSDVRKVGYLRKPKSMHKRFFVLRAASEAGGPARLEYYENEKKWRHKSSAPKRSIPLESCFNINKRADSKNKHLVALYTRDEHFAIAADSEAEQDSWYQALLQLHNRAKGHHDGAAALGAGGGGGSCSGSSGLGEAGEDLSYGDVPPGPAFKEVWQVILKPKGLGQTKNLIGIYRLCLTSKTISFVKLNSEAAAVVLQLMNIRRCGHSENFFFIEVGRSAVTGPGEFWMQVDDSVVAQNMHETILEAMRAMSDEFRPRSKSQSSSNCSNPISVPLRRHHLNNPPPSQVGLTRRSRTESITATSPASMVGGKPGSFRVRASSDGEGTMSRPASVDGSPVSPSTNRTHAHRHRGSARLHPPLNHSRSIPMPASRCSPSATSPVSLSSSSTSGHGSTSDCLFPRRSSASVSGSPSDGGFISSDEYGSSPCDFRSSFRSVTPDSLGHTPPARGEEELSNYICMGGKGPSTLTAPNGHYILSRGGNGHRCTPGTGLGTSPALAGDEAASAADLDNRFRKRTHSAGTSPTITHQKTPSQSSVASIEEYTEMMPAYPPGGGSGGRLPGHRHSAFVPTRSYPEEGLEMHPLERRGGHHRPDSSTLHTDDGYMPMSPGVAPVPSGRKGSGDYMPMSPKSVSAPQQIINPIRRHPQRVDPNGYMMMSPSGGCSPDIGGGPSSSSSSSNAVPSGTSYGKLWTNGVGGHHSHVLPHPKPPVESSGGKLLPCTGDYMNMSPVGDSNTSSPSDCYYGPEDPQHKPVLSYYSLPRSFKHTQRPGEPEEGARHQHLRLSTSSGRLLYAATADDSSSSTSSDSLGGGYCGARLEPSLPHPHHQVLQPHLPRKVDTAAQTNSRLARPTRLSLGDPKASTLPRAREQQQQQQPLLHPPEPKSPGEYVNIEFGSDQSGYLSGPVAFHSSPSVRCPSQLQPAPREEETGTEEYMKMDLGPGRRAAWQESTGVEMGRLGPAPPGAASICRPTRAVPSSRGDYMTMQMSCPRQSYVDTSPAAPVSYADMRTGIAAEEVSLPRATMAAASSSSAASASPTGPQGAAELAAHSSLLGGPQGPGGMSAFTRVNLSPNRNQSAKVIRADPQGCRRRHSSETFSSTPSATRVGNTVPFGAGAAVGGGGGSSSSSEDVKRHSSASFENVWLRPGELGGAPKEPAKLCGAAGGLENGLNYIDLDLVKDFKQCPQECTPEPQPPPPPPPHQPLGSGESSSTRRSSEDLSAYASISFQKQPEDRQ", "assay": "Peptide competition assay in cell lysates (anti-FLAG immunoprecipitation, anti-IRS1 blot)", "type": "binding", "settings": "peptide added into cell lysates of p110α E545K 3×FLAG KI cells", "method": "FIGS. 3(A-M) illustrate: (A, B) Mapping peptides (P3, SEQ ID NO: 1; P4 SEQ ID NO: 2; P5, SEQ ID NO: 3; P6, SEQ ID NO: 4) derived from mutant p110α that inhibit interaction between IRS1 and p110α E545K. The indicated peptides were added into cell lysates made from the p110α E545K 3×FLAG KI cells. Cell lysates were immunoprecipitated with beads conjugated with anti-FLAG antibodies and then blotted with anti-IRS1 antibodies. (C) Immunoblots of cell lysates made from the p110α E545K 3×FLAG KI cells. Cell lysates were immunoprecipitated with beads conjugated with anti-FLAG antibodies and then blotted with the indicated antibodies. (D) Immunoblots of cell lysate of Myc-tagged IRS1 plasmid, which co-transfected an ABD domain deletion construct of the FLAG-tagged p110α E545K mutant (ΔABD), incubated with the indicated amount of stapled p110α mutant peptides, and then immunoprecipitated with anti-FLAG antibodies and blotted with the indicated antibodies. (J, K) Immunoblot and graph of purified recombinant p110α E545K mutant proteins mixed with the indicated components and quantified using an in vitro lipid kinase assay. (L, M) Immunoblots of the indicated cell lines serum-starved, stimulated with 1 μg/ml insulin for 30 min, and then treated with or without the indicated peptides. Cell lysates were blotted with the indicated antibodies. All error bars show mean±SEM. *p<0.05, **p<0.001, t test.\nFor Co-immunoprecipitation (Co-IP), cells were harvested, washed with PBS, and then lysed in IP buffer (50 mMTris [pH 7.4], 150 mMNaCl, 5 mMEDTA [pH 8.0], 0.5% NP40, 1 mM PMSF, complete Protease Inhibitor Cocktail tablet [Roche]; supplemented with phosphatase inhibitors [1 mM Na3VO4, 20 mM NaF, 0.1 mM b-glycerophosphate, 20 mM sodium pyrophosphate] when necessary). For immunoblotting (IB) of phospho-specific proteins, unless stated otherwise, cells were lysed in urea buffer (100 mM NaH2PO4, 10 mM Tris-HCl, 8 M Urea, 1 mM Na3VO4, 20 mM NaF, 0.1 mM β-glycerophosphate, 20 mM sodium pyrophosphate, supplemented with complete Protease Inhibitor Cocktail tablet [Roche], pH 8.0). Lysates were then cleared by centrifugation (14,000 rpm, 10 min) and protein concentration in supernatants was determined with a BCA protein assay kit (Pierce, Rockford, Ill.). Equal amounts of total protein were used for IP or IB.\nFor in vitro peptide competition assay, the p110α mutant-FLAG-tagged cells were grown to 90% confluency, serum-starved overnight, and lysed as described previously. Peptides were then added to the cell lysates, incubated for 30 min at 4° C. and followed by immunoprecipitation assay.", "note": "Bridges are numbered along the chain shown (N, C = ends). Where no end group is shown, it is not given here. [ ]: non-standard residue; d: D form. S5 = C=CCCC[C@](C)(N)C(=O)O"}
{"substance": "H2N-SEITEQEKD^549-FLW-S^553-HRHYC-COOH (SEITEQEK[S5]FLW[S5]HRHYC; staple 9-13; not fully specified (N-terminus, C-terminus); printed as H2N-SEITEQEKD549-FLW-S553-HRHYC-COOH; listed as Homo sapiens) [stapled WT peptide, stapled wild-type p110α counterpart of the stapled mutant peptide, used as control, reference compound]", "values": [{"measurement": "inhibition of the interaction between p110α E545K and IRS1", "value": "did not inhibit"}]}
{"substance": "H2N-SEITKQEK-D^549-FLW-S^553-HRHYC-COOH [stapled mutant peptide]", "values": [{"measurement": "inhibition of the interaction between p110α E545K and IRS1", "value": "almost completely disrupted"}, {"measurement": "inhibition of the interaction between p110α E545K and IRS1", "setting": "listed as stapled polypeptide substantially homologous to the C-terminal α-helical motif o", "value": "disrupted"}]}
